One molecule from patent publication US9145555B2, “Integrated—ligand-responsive microRNAs” (California Institute of Technology, priority 2009, dated 2015) can be followed below.

One series relates to targeted GFP transcript. Briefly: Self-targeting miRNA circuit, GFP levels in stable 293-Flp-In cells (flow cytometry, time course). The format is cell-based, human. The settings on record: 1.5 mM theophylline for over a week; compared to th1′. The text has this: Ligand-responsive miRNAs can regulate genes in trans through RISC targeting and in cis through Drosha cleavage. A control system based on combining both modes of regulation into ‘self-targeting miRNAs’ may offer tighter regulation while still operating within the 3′ UTR of the transgene encoding transcript. We developed a dual-acting miRNA circuit based on the insertion of ligand-responsive miRNAs or miRNA clusters into the 3′ UTR of a targeted GFP transcript (FIG. 6A), where ligand control of Drosha cleavage is expected to impact direct destabilization of the cleaved transcript and subsequent RISC-mediated inactivation of other target transcripts. The resulting constructs were stably integrated into 293-Flp-In cells to ensure consistent expression for all constructs. […]
Stable transfection of 293-Flp-In cell lines was performed using the Flp-In recombinase system (Invitrogen) according to the manufacturer's instructions to generate isogenic stable cell lines. Integrants were selected using 200 μg/ml hygromycin B (Invitrogen), whereas stable cell lines were maintained in 50 μg/ml hygromycin B. The procedure described above for the fluorescence expression analysis of transiently transfected cell populations was used to analyze the stable cell lines with notable exceptions. […]

The test system of series [1] is immunopurified Drosha complex. Briefly: In vitro Drosha cleavage assay. The series is classed as biochemical. As to the method: We performed in vitro Drosha cleavage assays that mimic the first step in miRNA biogenesis to examine the relationship between bulge size and Drosha processing. RNAs with varying bulge sizes in the basal segments (FIG. 1B) were transcribed in vitro, incubated with immunopurified Drosha, and resolved by PAGE (FIG. 1C). […] Such abortive processing has been previously observed in vitro and attributed to DGCR8 recognition of the terminal loop instead of the miRNA basal segments (Han et al., 2006).
Internally radiolabeled RNAs were transcribed in vitro from an annealed template containing the T7 promoter (5′-[…]-3′, where G is the first transcribed nucleotide) using the Ampliscribe T7 transcription kit (Epicentre) according to the manufacturer's instructions with [α-32P]-GTP. Following transcription and DNase treatment, the transcription product was purified through a NucAway clean-up column (Ambion) according to the manufacturer's instructions and gel-purified by PAGE.
In vitro assays were conducted as described previously (Lee
and Kim, 2007). Briefly, the Drosha complex was immunopurified from 293T cells transiently transfected with pCK-Drosha-FLAG and pCK-DGCR8-FLAG (9:1 mass ratio). […]

Series [2] deals with transcript encoding DsRed-Express. Briefly: DsRed-Express levels, regulation in cis (transient transfection, flow cytometry). The series is classed as cell-based, human. The source says: To assess the capacity for ligand-responsive miRNAs to regulate gene expression in cis, we measured expression levels for the transcripts harboring the ligand-responsive miRNAs targeting GFP and La. DsRed-Express levels were quantified by flow cytometry under similar conditions as the trans-targeted gene silencing experiments. […] Transcript analysis confirmed that the predominant regulatory mechanism of ligand-responsive miRNAs in cis is mRNA destabilization (FIG. 10).
293 and Flp-In-293 cells were maintained in DMEM supplemented with 10% FBS at 37° C. in a 5% CO2—humidified incubator. Transient transfections were conducted with Fugene 6 (Roche) according to the manufacturer's instructions one day after seeding. Immediately prior to transfection, the media was supplemented with the appropriate ligand at the specified concentration. […] Three days post-transfection, the cells were trypsinized and subjected to flow cytometry analysis on a Cell Lab Quanta SC MPL (Beckman Coulter) and the resulting data was analyzed using the Flowjo software (Tree Star). […] GFP and DsRed fluorescence of viable cells were measured through a 525 nm and […] band pass filter, respectively, after excitation with a 488 nm laser. […] GFP levels were calculated as the median fluorescence of the transfected population divided by that of the untransfected population (Beisel et al., 2008). […]
Background: In flow cytometry, cells or beads pass a laser one at a time.

The test system of series [3] is transcript encoding the green fluorescent protein (GFP) in HEK 293 cells stably expressing GFP. Briefly: Cell culture assay for miRNA activity (GFP silencing, transient transfection, flow cytometry). The series is classed as cell-based, human. The source says: To examine the relationship between bulge size in the basal segments and gene silencing, we developed a general cell culture assay for miRNA activity (FIG. 1D). miRNAs designed to target a transcript encoding the green fluorescent protein (GFP) were inserted into the 3′ untranslated region (UTR) of a constitutively-expressed transcript encoding the fluorescent protein DsRed-Express. Plasmid DNA encoding the DsRed-Express construct was transfected into HEK 293 cells stably expressing GFP. The level of miRNA-mediated gene silencing was determined by flow cytometry analysis, where DsRed-Express levels were used to distinguish between transfected and untransfected cells. Using the cell culture assay, miRNAs with the same bulges as in the in vitro experiments were tested for silencing efficiency. […] Therefore, proper Drosha processing and gene silencing correlate with the size of the bulge in the miRNA basal segments.
293 and Flp-In-293 cells were maintained in DMEM supplemented with 10% FBS at 37° C. in a 5% CO2—humidified incubator. Transient transfections were conducted with Fugene 6 (Roche) according to the manufacturer's instructions one day after seeding. Immediately prior to transfection, the media was supplemented with the appropriate ligand at the specified concentration. Ligand concentrations were selected to maximize the regulatory response without severely compromising cell viability over the course of the transient assays. The media was replaced two days post-transfection. Three days post-transfection, the cells were trypsinized and subjected to flow cytometry analysis on a Cell Lab Quanta SC MPL (Beckman Coulter) and the resulting data was analyzed using the Flowjo software (Tree Star). Cells were initially gated for viability by electronic volume and side scatter. GFP and DsRed fluorescence of viable cells were measured through a 525 nm and […] band pass filter, respectively, after excitation with a 488 nm laser. Moderate to high DsRed levels served as a transfection control to gate between transfected and untransfected cells. Transfected cells could be distinguished from untransfected cells with this method even when four miRNAs were present in the 3′ UTR of the DsRed-Express encoding transcript (data not shown). GFP levels were calculated as the median fluorescence of the transfected population divided by that of the untransfected population (Beisel et al., 2008). This normalization approach corrected for the bias from pleiotropic effects associated with each small molecule. All ratios were normalized such that the value for DsRed-Express lacking a miRNA under the same conditions was set to 100%.

B1: th1: SEQ ID NO. 23; GFP-targeting miRNA with a theophylline aptamer in the basal segments (nucleic acid)
chain: TCTAGAACGGGTCCTGATACCAGCGTGAGCGAGCACAAGCTGGAGTACAACTATAGTGAAGCCACAGATGTATAGTTGTACTCCAGCTTGTGCCCGCCTACGCCCTTGGCAGCAGGGCCC
modifications: expressed or natural sequence
notes: 23; GFP-targeting miRNA with a theophylline aptamer in the basal segments
As for B1, the “GFP silencing and dynamic range of self-targeting versus non-targeting miRNAs” value with targeted GFP transcript is “improved both GFP silencing and the dynamic range”. For the same molecule, the “size of primary products of Drosha processing” value in series [1] (in vitro transcribed miRNA, PAGE) is recorded as approximately 61 nts. Further, in series [1] (presence or absence of 5 mM theophylline), the “effect of theophylline on Drosha processing” value is given as “theophylline inhibited proper processing”. The “ligand regulation of DsRed-Express in cis” value in series [2] (5 mM theophylline) was “two copies were sufficient to introduce ligand regulation”. Moreover, the “DsRed silencing in cis versus copy number” value in series [2] (one to four copies, transient transfection) was “DsRed silencing increased with increasing copy number”. The GFP silencing entry in series [3] (single copy, absence of ligand) is on record as “silence GFP with comparable strength”. Besides, the “response of GFP levels to theophylline” value in series [3] (transient transfection with varying theophylline concentrations) was “theophylline dose-dependent increase in GFP expression levels”. Besides, in series [3] (two copies, shortest spacer (2 nt), 5 mM theophylline), the “GFP silencing and theophylline response of two miRNA copies, adjacent placement” value was “compromised both silencing and the response to theophylline”. The “GFP silencing and theophylline response of two miRNA copies, increased spacer length” value in series [3] (two copies, spacer up to 112 nt, 5 mM theophylline, versus single copy) is “restored and even exceeded the silencing activity and theophylline-dependence from a single copy”. In addition, the “GFP silencing versus miRNA copy number” value in series [3] (up to four copies separated by 112 nt spacer) was “GFP silencing increased with each additional copy”. The “dynamic range (ratio of GFP levels in the presence or absence of theophylline) versus copy number” value in series [3] (up to four copies, 112 nt spacer, 5 mM theophylline) was “increased silencing and the dynamic range”.
